These results are taken from publication PMC8481289, “Structural basis for UFM1 transfer from UBA5 to UFC1” (Nature Communications, 2021).

Usually Kd stands for the equilibrium constant for the complex coming apart.

The labels stand for the following.
B1: UBA5 (389-404) (domain or fragment, human, UniProt Q9GZZ9 389-404, looked up)
chain: DSGESLEDLMAKMKNM
notes: UBA5, human, residues 389-404 (holds the UBS); Never stood alone: it was fused to the C-terminus of UFC1 for the crystal structure; also called UBS; source: E. coli T7 express, purified, as part of the fusion UFC1-UBA5(389-404)
B2: UBA5(Δ349-389) (enzyme, human)
chain: MAESVERLQQRVQELERELAQERSLQVPRSGDGGGGRVRIEKMSSEVVDSNPYSRLMALKRMGIVSDYEKIRTFAVAIVGVGGVGSVTAEMLTRCGIGKLLLFDYDKVELANMNRLFFQPHQAGLSKVQAAEHTLRNINPDVLFEVHNYNITTVENFQHFMDRISNGGLEEGKPVDLVLSCVDNFEARMTINTACNELGQTWMESGVSENAVSGHIQLIIPGESACFACAPPLVVAANIDEKTLKREGVCAASLPTTMGVVAGILVQNVLKFLLNFGTVSFYLGYNAMQDFFPTMSMKPNPQCDDRNCRKQQEEYKKKVAALPKQEVIQEEEEIIHEDNEWGIELVSEGSGSGESLEDLMAKMKNM
notes: UBA5, human, up to residue 348; UBA5, human, from residue 390 to the C-terminus (holds the UBS); Linker between UIS and UBS removed, UBS kept
B3: UFC1 (WT) (enzyme, human)
chain: MADEATRRVVSEIPVLKTNAGPRDRELWVQRLKEEYQSLIRYVENNKNADNDWFRLESNKEGTRWFGKCWYIHDLLKYEFDIEFDIPITYPTTAPEIAVPELDGKTAKMYRGGKICLTDHFKPLWARNVPKFGLAHLMALGLGPWLAVEIPDLIQKGVIQHKEKCNQ
notes: UFC1, the E2 of UFM1; active site C116; 15N-labelled (M9 medium with 15NH4Cl) for the NMR titrations; In the two crystal structures UFC1 stood as part of a fusion chain; also called E2
B4: UFC1-NC (enzyme, human)
chain: B3 chain with C69S, C165S
modifications: activated with the crosslinker 2,2' dithiodipyridyldisulfide (DPDS); only the active site C116 is left
notes: UFC1 with C69 and C165 mutated to serine, leaving only the active site C116
B5: UBA5(347–404) (domain or fragment, human, UniProt Q9GZZ9 347-404, looked up)
chain: SEVSEEELKNFSGPVPDLPEGITVAYTIPKKQEDSVTELTVEDSGESLEDLMAKMKNM
notes: In the crystal structure 7NVK the same stretch stood fused to the N-terminus of UFC1

Substitutions are numbered along the chain they refer to.

Conditions in all cases: both partners purified
Test [1] concerns the target B3. Kind of test: crystal structure; UBA5(389-404) fused to the C-terminus of UFC1; 2.4 Å; the UBS binds the UFC1 of a fusion molecule of another asymmetric unit; 35 mM citric acid, 65 mM bis-tris propane, 19% PEG3350, 100 mM LiCl, 20 °C.
In test [2] the target is B3. The experiment in a line: ITC; UFC1 titrated into the UBA5 construct (heat per mole of UFC1); MicroCal PEAQ ITC, 25 °C; 20 mM Tris pH 7.5, 50 mM NaCl, 2 mM DTT; 19 injections of 2 μl; fitted to the two sets of sites model.
Test [3] addresses T1, UBA5 Y372A (human, UniProt Q9GZZ9 1-404, Y372A).
T1 construct: UBA5, human, point mutant in the linker between UIS and UBS
The test is described as above.

The target in test [4] is T2, UBA5 double mutant C250A and A371C (human, UniProt Q9GZZ9 1-404, C250A | A371C).
T2 construct: UBA5, human, active site Cys removed and a Cys placed in the linker
The experiment in a line: cross-linking; disulfide trapping: DPDS-activated UFC1-NC (4 μM) mixed with 2 μM UBA5 (WT or mutants) in PBS, 25 °C, 20 min; non-reducing SDS-PAGE, Coomassie.

The target in test [5] is T3, UBA5 WT (human, UniProt Q9GZZ9 1-404).
T3 construct: UBA5, human; active site C250; also called E1
Described as above.

Test [6] deals with B3. The experiment in a line: crystal structure; UBA5(347-404) fused to the N-terminus of UFC1; 2.65 Å; the UBS binds the UFC1 of a molecule of another asymmetric unit; 2% tacsimate pH 7.0, 20% PEG 3350, 0.1 M HEPES pH 7.5, 6 mM zinc sulfate, 20 °C.

Turning to B1, in test [1], the binding result is recorded as “binds”. In test [2], B2 returned an equilibrium dissociation constant (Kd) of 5.5 µM. Consider B3, for which, in test [3], the binding result is recorded as “binds”. Take B4: the binding result in test [4] and in test [5] was “binds” in each case. On to B5, for which the binding result in test [6] is “binds”.
